What was measured:
[1] = target: T1, RIN139N (GST-RIN, N-terminal) (Solanum lycopersicum, UniProt Q8S4L4 1-139); experiment: EMSA; intense signal; 20 mM HEPES pH 7.5, 20% glycerol, 0.05 ug poly(dIdC), 2.5 mM EDTA, 2.5 mM DTT, 25 mM NaCl, plus 0.8 mM ZnCl2 (SlASR1) or 10 mM MgCl2 (RIN), 25 C, 30 min; 6% native PAGE 0.5x TBE; conditions: protein: recombinant; tags: N-terminal GST; chain copies: 2; label: 5'-32P
[2] = target: T1, RIN139N (GST-RIN, N-terminal); experiment: EMSA; 20 mM HEPES pH 7.5, 20% glycerol, 0.05 ug poly(dIdC), 2.5 mM EDTA, 2.5 mM DTT, 25 mM NaCl, plus 0.8 mM ZnCl2 (SlASR1) or 10 mM MgCl2 (RIN), 25 C, 30 min; 6% native PAGE 0.5x TBE; conditions: protein: recombinant; tags: N-terminal GST; chain copies: 2; label: 5'-32P

T1 sequence (Q8S4L4 entry or part of it): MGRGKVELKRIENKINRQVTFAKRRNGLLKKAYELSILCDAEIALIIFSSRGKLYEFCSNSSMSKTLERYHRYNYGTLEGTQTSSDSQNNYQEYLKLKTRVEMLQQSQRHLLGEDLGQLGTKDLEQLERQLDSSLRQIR

| Binder | binding result [1] | binding result [2] |
| --- | --- | --- |
| CArG (26 bp, box 6) (dsDNA) DNA 1: TTCATATTCCAAAATTTGATATTTTA DNA 2: TAAAATATCAAATTTTGGAATATGAA | binds | – |
| SlASR1 promoter CArG (26 bp) (dsDNA) DNA 1: AAGCAAAACATAAAATTGACTTGAAT DNA 2: ATTCAAGTCAATTTTATGTTTTGCTT | – | binds |
| CArG box 5 (26 bp) (dsDNA) DNA 1: CACAAAAACATAATTATGCTTCTTAC DNA 2: GTAAGAAGCATAATTATGTTTTTGTG | binds | – |
| mCArG (26 bp, box 6 mutated) (dsDNA) DNA 1: TTCATATTTCAAAATTTAATATTTTA DNA 2: TAAAATATTAAATTTTGAAATATGAA | – | no binding |

From paper PMC4203122, “Insights into transcriptional regulation of β-D-N-acetylhexosaminidase, an N-glycan-processing enzyme involved in ripening-associated fruit softening”
